This is an account of results in IntAct's records for PubMed 31515488.

B1: U3 small nucleolar RNA-associated protein 14 homolog C (Homo sapiens), Q5TAP6 (parent)
chain: MNVNQVAENLALSHQEELVDLPKNYPLSENEDEGDSDGERKHQKLLEAIISLDGKNRRKLAERSEASLKVSEFSVSSEGSGEKLGLADLLEPVKTSSSLATVKKQLNRVKSKKVVELPLNKEKIEQIHREVAFSKTSQVLSKWDPIILKNQQAEQLVFPLGKEQPAIAPIEHALSGWKARTPLEQEIFNLLHKNKQPVTDPLLTPMEKASLQAMSLEEAKMHRAELQRARALQSYYEAKARKEKKIKSKKYHKVVKKGKAKKALKEFEQLQKVNPTVALEEMEKIENARMMERMSLKHQNSGKWAKSKAIMAKYDLEARQAMQEQLAKNKELTQKLQVASESEEEEGGTEVEELLVPHVANEVQMNVDGPNPWMFRSCTSDTKEAATQEDPEQVPELAAHEVSASEAEERPVAEEEILLREFEERQSLRKRSELNQDAEPASSQETKDSSSQEVLSELRALSQKLKEKHQSRKQKASSEGTVPQVQREEPAPEEAEPLLLQRSERVQTLEELEELGKEDCFQNKELPRPVLEGQQSERTPNNRPDAPKEKKEKEQLINLQNFLTTQSPSVRSLAVPTIIEELEDEEERDQRQMIKEAFAGDDVIRDFLKEKREAVEASKPKDVDLTLPGWGEWGGVGLKPSAKKRRQFLIKAPEGPPRKDKNLPNVIISEKRNIHAAAHQVQVLPYPFTHHRQFERTIQTPIGSTWNTQRAFQKLTTPKVVTKPGHIIKPIKAEDVGYQSSSRSDLPVIQRNPKRITTRHNKEEKL
partner: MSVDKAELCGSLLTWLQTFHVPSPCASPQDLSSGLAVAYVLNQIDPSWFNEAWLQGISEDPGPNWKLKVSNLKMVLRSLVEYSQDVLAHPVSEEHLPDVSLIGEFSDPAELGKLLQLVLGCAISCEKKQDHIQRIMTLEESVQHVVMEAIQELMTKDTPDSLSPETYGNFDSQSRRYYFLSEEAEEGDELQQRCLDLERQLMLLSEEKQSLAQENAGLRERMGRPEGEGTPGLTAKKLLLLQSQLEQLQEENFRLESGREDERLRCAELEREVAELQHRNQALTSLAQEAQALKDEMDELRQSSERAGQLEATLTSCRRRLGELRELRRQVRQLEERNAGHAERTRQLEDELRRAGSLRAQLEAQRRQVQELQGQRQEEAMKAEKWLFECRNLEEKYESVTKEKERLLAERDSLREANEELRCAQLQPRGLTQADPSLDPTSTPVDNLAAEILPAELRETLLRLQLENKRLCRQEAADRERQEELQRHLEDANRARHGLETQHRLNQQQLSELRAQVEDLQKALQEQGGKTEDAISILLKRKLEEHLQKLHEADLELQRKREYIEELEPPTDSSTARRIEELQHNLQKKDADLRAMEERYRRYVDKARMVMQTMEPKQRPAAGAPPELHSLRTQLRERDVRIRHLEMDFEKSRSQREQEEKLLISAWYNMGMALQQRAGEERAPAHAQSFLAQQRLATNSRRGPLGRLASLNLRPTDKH
B2: Protein BANP (Homo sapiens), Q8N9N5-2 (parent)
chain: MMSEHDLADVVQIAVEDLSPDHPVVLENHVVTDEDEPALKRQRLEINCQDPSIKSFLYSINQTICLRLDSIEAKLQALEATCKSLEEKLDLVTNKQHSPIQVPMVAGSPLGATQTCNKVRCAVPGRRQNTIVVKVPGQEDSHHEDGESGSEASDSVSSCGQAGSQSIGSNVTLITLNSEEDYPNGTWLGDENNPEMRVRCAIIPSDMLHISTNCRTAEKMALTLLDYLFHREVQAVSNLSGQGKHGKKQLDPLTIYGIRCHLFYKFGITESDWYRIKQSIDSKCRTAWRRKQRGQSLAVKSFSRRTPNSSSYCPSEPMMSTPPPASELPQPQPQPQALHYALANAQQVQIHQIGEDGQVQVIPQGHLHIAQVPQGEQVQITQDSEGNLQIHHVGQDGQVLQGAQLIAVASSDPAAAGVDGSPLQGSDIQVQYVQLAPVSDHTAGAQTAEALQPTLQPEMQLEHGAIQIQ
partner: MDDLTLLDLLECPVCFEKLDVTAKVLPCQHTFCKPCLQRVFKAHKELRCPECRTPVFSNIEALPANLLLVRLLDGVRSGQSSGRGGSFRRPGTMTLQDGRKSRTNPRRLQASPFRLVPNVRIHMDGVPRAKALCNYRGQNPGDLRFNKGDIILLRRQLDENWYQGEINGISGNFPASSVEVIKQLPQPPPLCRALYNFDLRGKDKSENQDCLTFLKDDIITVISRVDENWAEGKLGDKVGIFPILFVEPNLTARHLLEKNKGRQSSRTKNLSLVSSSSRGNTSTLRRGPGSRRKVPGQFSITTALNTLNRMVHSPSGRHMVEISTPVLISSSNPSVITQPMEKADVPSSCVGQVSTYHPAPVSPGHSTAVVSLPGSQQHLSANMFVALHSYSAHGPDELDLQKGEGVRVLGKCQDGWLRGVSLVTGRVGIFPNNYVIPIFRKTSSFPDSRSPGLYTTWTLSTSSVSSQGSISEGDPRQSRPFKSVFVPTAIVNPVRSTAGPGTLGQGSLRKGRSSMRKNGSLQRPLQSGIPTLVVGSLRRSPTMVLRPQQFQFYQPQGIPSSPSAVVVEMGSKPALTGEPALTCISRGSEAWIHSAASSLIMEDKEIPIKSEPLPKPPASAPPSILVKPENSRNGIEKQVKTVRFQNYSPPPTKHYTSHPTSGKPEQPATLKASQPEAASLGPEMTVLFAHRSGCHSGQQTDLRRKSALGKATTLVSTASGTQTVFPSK
B3: Microtubule-associated tumor suppressor candidate 2 (Homo sapiens), Q5JR59-3 (parent)
chain: MGHCCCKPYNCLQCLDKTNESALVKEKELSIELANIRDEVAFHTAKCEKLQKEKEELERRFEDEVKRLGWQQQAELQELEERLQLQFEAEMARLQEEHGDQLLSIRCQHQEQVEDLTASHDAALLEMENNHTVAITILQDDHDHKVQELMSTHELEKKELEENFEKLRLSLQDQVDTLTFQSQSLRDRARRFEEALRKNTEEQLEIALAPYQHLEEDMKSLKQVLEMKNQQIHEQEKKILELEKLAEKNIILEEKIQVLQQQNEDLKARIDQNTVVTRQLSEENANLQEYVEKETQEKKRLSRTNEELLWKLQTGDPTSPIKLSPTSPVYRGSSSGPSSPARVSTTPR
partner: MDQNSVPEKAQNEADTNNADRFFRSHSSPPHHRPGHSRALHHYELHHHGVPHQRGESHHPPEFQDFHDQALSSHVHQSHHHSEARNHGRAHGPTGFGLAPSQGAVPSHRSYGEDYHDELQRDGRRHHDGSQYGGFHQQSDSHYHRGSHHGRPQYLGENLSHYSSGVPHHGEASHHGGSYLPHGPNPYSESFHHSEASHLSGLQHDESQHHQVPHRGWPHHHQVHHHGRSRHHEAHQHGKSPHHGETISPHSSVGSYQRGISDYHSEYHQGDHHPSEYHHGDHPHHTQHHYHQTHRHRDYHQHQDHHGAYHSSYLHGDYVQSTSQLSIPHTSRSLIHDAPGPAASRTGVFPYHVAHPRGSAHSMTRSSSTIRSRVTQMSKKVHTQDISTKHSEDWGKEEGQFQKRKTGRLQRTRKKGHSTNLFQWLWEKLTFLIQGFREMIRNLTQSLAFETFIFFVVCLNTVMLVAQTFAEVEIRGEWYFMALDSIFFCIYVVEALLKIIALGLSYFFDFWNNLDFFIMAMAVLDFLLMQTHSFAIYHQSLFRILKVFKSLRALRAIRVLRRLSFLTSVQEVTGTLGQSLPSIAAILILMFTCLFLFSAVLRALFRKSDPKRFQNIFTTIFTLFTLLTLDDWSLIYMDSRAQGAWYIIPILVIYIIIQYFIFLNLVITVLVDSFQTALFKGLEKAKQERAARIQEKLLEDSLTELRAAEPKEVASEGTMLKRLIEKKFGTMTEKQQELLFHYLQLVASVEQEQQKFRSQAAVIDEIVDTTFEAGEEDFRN
B4: Programmed cell death 6-interacting protein (Homo sapiens), Q8WUM4 (parent)
chain: MATFISVQLKKTSEVDLAKPLVKFIQQTYPSGGEEQAQYCRAAEELSKLRRAAVGRPLDKHEGALETLLRYYDQICSIEPKFPFSENQICLTFTWKDAFDKGSLFGGSVKLALASLGYEKSCVLFNCAALASQIAAEQNLDNDEGLKIAAKHYQFASGAFLHIKETVLSALSREPTVDISPDTVGTLSLIMLAQAQEVFFLKATRDKMKDAIIAKLANQAADYFGDAFKQCQYKDTLPKEVFPVLAAKHCIMQANAEYHQSILAKQQKKFGEEIARLQHAAELIKTVASRYDEYVNVKDFSDKINRALAAAKKDNDFIYHDRVPDLKDLDPIGKATLVKSTPVNVPISQKFTDLFEKMVPVSVQQSLAAYNQRKADLVNRSIAQMREATTLANGVLASLNLPAAIEDVSGDTVPQSILTKSRSVIEQGGIQTVDQLIKELPELLQRNREILDESLRLLDEEEATDNDLRAKFKERWQRTPSNELYKPLRAEGTNFRTVLDKAVQADGQVKECYQSHRDTIVLLCKPEPELNAAIPSANPAKTMQGSEVVNVLKSLLSNLDEVKKEREGLENDLKSVNFDMTSKFLTALAQDGVINEEALSVTELDRVYGGLTTKVQESLKKQEGLLKNIQVSHQEFSKMKQSNNEANLREEVLKNLATAYDNFVELVANLKEGTKFYNELTEILVRFQNKCSDIVFARKTERDELLKDLQQSIAREPSAPSIPTPAYQSSPAGGHAPTPPTPAPRTMPPTKPQPPARPPPPVLPANRAPSATAPSPVGAGTAAPAPSQTPGSAPPPQAQGPPYPTYPGYPGYCQMPMPMGYNPYAYGQYNMPYPPVYHQSPGQAPYPGPQQPSYPFPQPPQQSYYPQQ
partner: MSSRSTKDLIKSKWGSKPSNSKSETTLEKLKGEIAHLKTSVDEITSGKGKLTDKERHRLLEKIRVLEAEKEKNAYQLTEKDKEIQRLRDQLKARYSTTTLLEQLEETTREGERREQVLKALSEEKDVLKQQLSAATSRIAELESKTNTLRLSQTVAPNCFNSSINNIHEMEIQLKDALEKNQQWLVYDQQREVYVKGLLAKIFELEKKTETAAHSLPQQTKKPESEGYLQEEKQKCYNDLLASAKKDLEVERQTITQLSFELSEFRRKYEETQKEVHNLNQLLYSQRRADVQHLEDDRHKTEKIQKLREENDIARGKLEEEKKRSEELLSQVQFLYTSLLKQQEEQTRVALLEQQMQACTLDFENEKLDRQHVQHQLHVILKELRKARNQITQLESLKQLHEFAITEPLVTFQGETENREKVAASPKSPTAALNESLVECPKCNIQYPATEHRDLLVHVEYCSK

The variants in one experiment derive from B1. As to conditions: with hook2_human HOOK2, Q96ED9.
For the variant V109D, the “effect of a mutation on the interaction” value is recorded as “with no effect”.
On the same count and under the same terms, then G85V, with “with no effect”.
Same read-out and setting: then R672H, with “with no effect”.
The same measure, in the same setting: in the case of A652T it was “with no effect”; in that of R319H, “with no effect”; in that of V570M, “with no effect”.

The variants in a further experiment derive from B2. As to conditions: with sh3r2_human SH3RF2, Q8TEC5.
In the case of A162V, the “effect of a mutation on the interaction” value is “with no effect”.

In a further experiment the parent is B3. As to conditions: with ctsr1_human CATSPER1, Q8NEC5.
In the case of A89V, the “effect of a mutation on the interaction” value is on record as “with no effect”.

The next experiment covers variants of B4. As to conditions: with cep55_human CEP55, Q53EZ4.
For S730L, the “effect of a mutation on the interaction” value is recorded as “with no effect”.
Take G429S: the “effect of a mutation on the interaction” value is “with no effect”.
Turning to N550S, the “effect of a mutation on the interaction” value is recorded as “with no effect”.
